Data: IntAct's records for PubMed 20111005

B1: CCAAT/enhancer-binding protein beta (Gallus gallus (Chicken)), Q05826 (parent)
chain: MQRLVAWDAACLPIQPPAFKSMEVANFYYEADCLAALNKLHPRAAGGRSMTELTVGDHERAIDFSPYLDPLAASQQPAQPPPPAAAAGGNFEPACSSGGQDFLSDLFAEDYKGSGGGKKPDYTYISLTRHGHPCGSQSHKPGVLPGCFPPQIVETKVEPVFETLDSCKGPRKEEGGAGPGPGGMSSPYGSTVRSYLGYQSVPSGSSGNLSTSSSSSPPGTPNPSESSKSAAGAGGYSGPPAGKNKPKKCVDKHSDEYKLRRERNNIAVRKSRDKAKMRNLETQHKVLELTAENERLQKKVEQLSRELSTLRNLFKQLPEPLLASSPRC

Variants of: B1
Conditions: with smca2_human SMARCA2, P51531
Sequence of smca2_human SMARCA2, P51531 (P51531 whole entry): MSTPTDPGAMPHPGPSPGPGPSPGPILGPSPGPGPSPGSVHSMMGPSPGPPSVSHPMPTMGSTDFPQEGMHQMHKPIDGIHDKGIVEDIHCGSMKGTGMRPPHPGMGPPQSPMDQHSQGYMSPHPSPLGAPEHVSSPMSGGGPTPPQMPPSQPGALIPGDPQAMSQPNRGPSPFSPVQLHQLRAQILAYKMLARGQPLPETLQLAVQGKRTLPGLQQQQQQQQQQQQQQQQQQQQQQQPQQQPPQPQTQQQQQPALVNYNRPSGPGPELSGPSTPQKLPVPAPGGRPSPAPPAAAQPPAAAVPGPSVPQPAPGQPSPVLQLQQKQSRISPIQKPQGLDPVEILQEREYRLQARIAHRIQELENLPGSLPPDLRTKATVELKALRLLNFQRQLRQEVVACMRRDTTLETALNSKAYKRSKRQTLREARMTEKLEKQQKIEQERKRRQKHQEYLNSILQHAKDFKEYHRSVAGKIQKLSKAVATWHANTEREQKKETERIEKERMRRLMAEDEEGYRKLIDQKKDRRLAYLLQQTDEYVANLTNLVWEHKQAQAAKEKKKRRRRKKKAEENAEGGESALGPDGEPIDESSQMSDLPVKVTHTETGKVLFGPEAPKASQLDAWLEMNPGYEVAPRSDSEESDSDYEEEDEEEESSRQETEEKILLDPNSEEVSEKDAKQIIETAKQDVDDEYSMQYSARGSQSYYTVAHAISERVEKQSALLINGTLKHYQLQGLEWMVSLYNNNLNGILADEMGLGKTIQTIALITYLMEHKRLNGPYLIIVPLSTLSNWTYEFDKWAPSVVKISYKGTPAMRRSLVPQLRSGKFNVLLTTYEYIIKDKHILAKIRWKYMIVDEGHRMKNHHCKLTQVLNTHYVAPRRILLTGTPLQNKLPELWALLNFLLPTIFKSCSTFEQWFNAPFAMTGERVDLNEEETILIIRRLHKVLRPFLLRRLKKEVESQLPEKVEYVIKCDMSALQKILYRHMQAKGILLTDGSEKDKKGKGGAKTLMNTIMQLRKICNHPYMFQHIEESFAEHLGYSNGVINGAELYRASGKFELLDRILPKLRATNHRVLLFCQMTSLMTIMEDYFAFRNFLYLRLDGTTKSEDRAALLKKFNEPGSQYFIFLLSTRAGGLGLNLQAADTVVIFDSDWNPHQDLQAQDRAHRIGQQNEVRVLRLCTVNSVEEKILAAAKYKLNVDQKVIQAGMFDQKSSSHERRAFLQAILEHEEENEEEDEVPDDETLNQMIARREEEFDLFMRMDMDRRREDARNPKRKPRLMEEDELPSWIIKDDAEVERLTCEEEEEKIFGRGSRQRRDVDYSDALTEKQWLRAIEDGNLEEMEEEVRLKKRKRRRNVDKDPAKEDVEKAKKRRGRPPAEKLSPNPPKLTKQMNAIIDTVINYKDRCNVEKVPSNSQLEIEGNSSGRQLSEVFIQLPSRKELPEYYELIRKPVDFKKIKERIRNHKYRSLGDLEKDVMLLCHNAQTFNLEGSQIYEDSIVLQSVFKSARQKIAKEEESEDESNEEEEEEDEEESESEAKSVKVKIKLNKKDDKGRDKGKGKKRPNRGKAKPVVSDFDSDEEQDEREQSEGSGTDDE

Variant | effect of a mutation on the interaction
MQLLVAWDAACLPIQPPAFKSMEVANFYYEADCLAALNKLHPRAAGGRSMTELTVGDHERAIDFSPYLDPLAASQQPAQPPPPAAAAGGNFEPACSSGGQDFLSDLFAEDYKGSGGGKKPDYTYISLTRHGHPCGSQSHKPGVLPGCFPPQIVETKVEPVFETLDSCKGPRKEEGGAGPGPGGMSSPYGSTVRSYLGYQSVPSGSSGNLSTSSSSSPPGTPNPSESSKSAAGAGGYSGPPAGKNKPKKCVDKHSDEYKLRRERNNIAVRKSRDKAKMRNLETQHKVLELTAENERLQKKVEQLSRELSTLRNLFKQLPEPLLASSPRC [R3L] | decreasing interaction
